Experimental data reported in paper PMC6287813.

Molecular target: Rabbit skeletal actin, filamentous (pre-formed actin filament) (rabbit) (UniProt P68135)
Assay: single-filament TIRF microscopy with microfluidics (kymographs); actin filaments tethered at one point through biotinylated spectrin-actin seeds on streptavidin/PLL-PEG-biotin coverslip, stained with 0.15 uM Alexa Fluor 488-phalloidin; AF647-Tpm1.1 flowed in at various concentrations (62.5, 250, 500 nM shown), then washed with buffer only for dissociation; buffer F (5 mM Tris pH 7.8, 100 mM KCl, 1 mM MgCl2, 0.2 mM ATP, 0.2 mM EGTA, 0.1 mM CaCl2, 10 mM DTT, 1 mg/mL BSA)

## Murine tropomyosin isoform Tpm1.1, labelled with Alexa Fluor 647 at Cys-190 (natural protein)
  elongation rate of the Tpm1.1 strand on actin per feed concentration, towards the barbed end (nm s^-1 nM^-1): 0.88
  elongation rate of the Tpm1.1 strand on actin per feed concentration, towards the pointed end (nm s^-1 nM^-1): 1.1
  nucleation time tnuc (Kaplan-Meier estimate, filament of Fig 3C, 62.5 nM Tpm1.1): 1370 s
  weighted average elongation rate on one filament, towards the barbed end: 136 nm/s
  weighted average elongation rate on one filament, towards the pointed end: 104 nm/s
